Target: T1, HIV-1 capsid protein p24 (His-p24) (HIV-1 group M subtype B, NY5/NL4-3 …, UniProt P12493)
T1 construct: capsid protein p24 of HIV-1, the cut product of the Gag polyprotein; amplified from the template pWISP98-85 (NIH ARP); also called HIV-1 p24; p24 antigen; source: E. coli BL21-Star(DE3)pLysS, pET3a-His-p24, purified in-house; not shown: His6-Cys, N-terminal, kept
Experiment: BLI; in the same nanobody storage buffer (Fig. S5)
Conditions: both partners purified

B1: nanobody 48G11 (59H10 F93D) (VHH)
VHH: DVQLQESGGGLVQAGGSLRLSCAASGSISRFNAMGWWRQAPGKEREFVARIVKGFDPVLADSVKGRFTISIDSAENTLALQMNRLKPEDTAVYYCDAALDTAYWGQGTQVTVSS
notes: as the chain of m2 (59H10, PDB 5O2U chain B) with F93D; made by site-directed mutagenesis; Artificial variant of 59H10 with one changed residue; also called 48G11 (F93D)
binding result: no binding

Reference: publication PMC9892613, “Thermodynamic analysis of an entropically driven, high-affinity nanobody-HIV p24 interaction” (Biophysical Journal, 2022)
